Measurements as given in the DeepSol protein solubility set.

assay: soluble on expression in E. coli; label from the status in PepcDB or PDB records

Sequence	soluble on expression in E. coli
MKVEPYRLVVNEHQVNNTNSKENLKIVQLSDLHIKKDFNADRLDKVIQKTNEQNPDFIIFSGDLYDNYSQYNENEAVISKLKSLKAKYGKIAIWGNRDYGGGAVKEYANIMAESDFSLLRNENQVFTLDNGKKILFTGLDDALLGNPQFPSPNQMAETSYDILLTHEPDEVSQYQNKGYELILSGHSHGGQINVPLIPQIQKKATALMSHANNYTGGLYQLGANEKLYVNTGIGTTHLSARFGVAPEIAVLTFLEHHHHHH	not soluble
MKVFIIGAAGGIGNRLSSLLHARGDAVSGMHRNLEQASKITDTGATAVLGDLIHNSTEELAELFRGHDAIVFSAGAHGTGQENTTLIDGAGLRKAADAASAANVSRFILVSAFPESSRGENTTENFEHYMKVKKSADVYLSHTDLDWVIVRPGVLQDEAGDGLVTAGLAINYGNVARDNVAAFIDEALHQPQLSKIIVELTDGSTPVAEAVERLIKLEHHHHHH	soluble
MKVFLIGANGQIGQRLVSLFQDNPDHSIRAMVRKEEQKASLEAAGAEAVLANLEGSPEEIAAAAKGCDAIIFTAGSGGSTGYDKTLLVDLDGAAKAIEAAAIAGIKRFIMVSALQAHNRENWNEALKPYYVAKHYADKILEASGLTYTIIRPG	not soluble
MKVIEFHQVSKWYGQFQALKSISLTVNKGEIVVICGPSGSGKSTLIRTVNGLESIDSGEIIVLPELDERTRRSGKIGMVFQHFNLFPHLTVLENLTLAPIRTLKLSAQEAKERAYHFLQRVKITDQTHKYPIQLSGGQQQRVAIARSLCMQPEILLFDEPTSALDPETINEVLEVMVDLAQDGITMMCVTHEMGFARKVAHRVMFMDEGEILEVGSPEQLFQNPTHPRTQQFLNQILSH	not soluble
MKVIGINGSPRRAGNTSIMLKTIFEVLEDEGIETELIQVGGTNIKGCRACYACIKNKNSECSTKGDGFNEIFAKMVEADGMILGSPTYFADITPELKALIDRAGFVSRTNGQLFRHKVGASVVSLRRGGGIHAYDSINHLFQICQMFMVGSTYWNLGFGGRDGGEVVNDTEGMENMRDLGHSMAFLLKKLHNLEHHHHHH	not soluble
MKVIIFYTKTGGGHLSACKSLEESLNSMNIPVVTLDSLEFAGHLVSKEICSAYNYIVKSVPELFGALYNAGEKISDHNKKSIIYKLNSFYADNILTVLEEEQPDIIISTHIFATQSLSYLKQKNKVKALTASIVTDYTCAPFWEETDLDYYFLPHKDLIKEFKDKGLDSSKLIAFGLPIDSKFKVKTPKEKAKFNLALKKDKPHILIMGGSMGAGSVKDTTLYISKHLKECNITTICGNNKELFKEISEIKKSNPKIHVLQFTHEMNELMDSADILITKPGGLTSTEAMNKSLPIIMINPIPGVESANCNFFMKHNLGIKSNSLHETLKVCEKLISDKNFYEKIVSSQKLNSNINAAEDICKFLITKYHEIQYNSDNNSLLEHHHHHH	soluble
MKVLGLIVEYNPFHNGHLYHLEESKKISGADFVVCVMSGNFIQRGEPAIVNKWARTKMALSAGADLVIELPLSCAMASAEYFASGAVRILNDIGIVDYICFGSEHGDVKTLDYIAQILVEEPESYKSFLKEELDNGLSYPAARESALKKYTAHSINIPQIISSSNNILGIEYLKALRRIKSSIIPLTIKRINNDYNTENITGSISSASSIRKYISTSNSTSFDDVLAMTMPKTSVDILFEEFSAGRGPVFKEDFYPVVTSLIRKMTPEQIRNFAYVSEGLENRIKSAADTAGTYEELVESICTRRYTKTRVQRILMGILMGVTSKDLDMLSRFDSPQYARILGFNSKGKQLLSQIKKKSSIPLVLKLSDFIKSCDPVLKRKLELEILATDLYVMCYKNPAFRKAGQEFTQNIIIM	soluble
MKVLTVFGTRPEAIKMAPLVHALAKDPFFEAKVCVTAQHREMLDQVLKLFSIVPDYDLNIMQPGQGLTEITCRILEGLKPILAEFKPDVVLVHGDTTTTLATSLAAFYQRIPVGHVEAGLRTGDLYSPWPEEANRTLTGHLAMYHFSPTETSRQNLLRENVADSRIFITGNTVIDALLWVRDQVMSSDKLRSELAANYPFIDPDKKMILVTGHRRESFGRGFEEICHALADIATTHQDIQIVYPVHLNPNVREPVNRILGHVKNVILIDPQEYLPFVWLMNHAWLILTDSGGIQEEAPSLGKPVLVMRDTTERPEAVTAGTVRLVGTDKQRIVEEVTRLLKDENEYQAMSRAHNPYGDGQACSRILEALKNNRISLGSHHHHHH	soluble
MKVLVVGNGGREHAIAWKVAQSPLVKELYVAKGNAGIWEIAKRVDISPTDVEKLAEFAKNEGVDFTIVGPEAPLVEGIVDEFEKRGLKIFGPNKEAAKLEGSKAFAKTFMKKYGIPTARYEVFTDFEKAKEYVEKVGAPIVVKADGLAAGKGAVVCETVEKAIETLDRFLNKKIFGKSSERVVIEEFLEGEEASYIVMINGDRYVPLPTSQDHKRLLDEDKGPNTGGMGAYSPTPVINEEVEKRIREEIVERVIKGLKEEGIYYRGFLYAGLMITKEGPKVLEFNVRLGDPEAQPILMRVKNDFLETLLNFYEGKDVHIKEDERYALDVVLASRGYPEKPETGKIIHGLDYLKSMEDVVVFHAGTKKEGNFTVTSGGRVLNVCAYGKTLKEAKERAYEAIRYVCFEGMHYRKDIGDKAFKYLSE	soluble
MKVMIEKILLVQTLKRLPRMGWLIKGVQEPESIADHSFGVAFITLVLADVLEKRGKRIDVEKALKMAIVHDLAEAIITDIPLSAQEFVDKDKAEALVFKKVFPEFYELYREYQECSSPEAQLVRIADKLDMILQAYQYELSGNKNLDEFWEAIEEIKRLELSKYLEDILNSVGRLKA	soluble
MKVTQLSSETLDRAHERFEETLAQMTVAEANTMPAPLIKSVTWLMWHTARELDLQISALNHSDPLWLSQHWTEKFALDLPDETEDWHHTPEEAAKVVVAEKQLLSDYLAASVALTKSYLDQIKEEQLSDVIDKNWTPPVTRQVRLVSAIDDAVMHSGQAVYTRRLVIGK	soluble
MKVVLATGNPGKVRELKEGLAPLGWTLLTLADFALRMPKEEGATFLENALLKAAYVAKATGLPALADDSGLEVYALGGEPGVYSARYGGRATDRERNVYLLERMRHLKGEERKARFVAVLVLAYPDGHAEAYEGSVEGVILEAPRGEGGFGYDPLFYVPEAGKTFAEMGLEEKARYSHRGKALRALLEAYKDGPPPREVSKLE	soluble
MKVVLQRVTRAAVTVGDEVVGSIGRGLCVLVGVHRDDTEEDMKYIIRKILNLRVFPASEQKPWDKSVMDLDLEVLSVSQFTLYGQFKGNKLDFHTAMAPTEASKFYASFLEAMKKAYKADKIQDGKFAAMMSVDIVNDGPVTVTFDSKEK	not soluble
MKYEVVITSGNSNQAPIGAFFKGDFVTLHLYGGSHTFENLQKDGFYILNTCSPYLIAKSVLDDAGDYEYLDNDGIKIPYLKDSYKIELIEIKSRKIVETKNEFGSSKLMIVEGKPIFEKILNCNTSAYNRADGAVVEMAVLYSRKNMISKEEINDEITRLMKIIKKVGSKNHIELAKKLGV	soluble
MKYKAVLVDFGNTLVGFKPVFYEKVYQVLKDNGYDLDLRKVFRAYAKAMGMINYPDEDGLEHVDPKDFLYILGIYPSERLVKELKEADIRDGEAFLYDDTLEFLEGLKSNGYKLALVSNASPRVKTLLEKFDLKKYFDALALSYEIKAVKPNPKIFGFALAKVGYPAVHVGDIYELDYIGAKRSYVDPILLDRYDFYPDVRDRVKNLREALQKIEEMNKE	soluble
MKYKKLLFDLIDYLDAFESLHDGGSHEPEIKDFADFLSWRCGKKKKQEEEVVSVTRERAAGAKNIARGVSLLHRYSRFYIKKALTESPLQTEDEYTYLVSLMNGESMTKTELNNLNAMEKTSGAEVMRRLLKANLIEQRPDEEDRRSMRVSITPEGRKVLVNLFPNLRLCAETLVSALSDEQLTAFDHLLWLLCECHNEMFTGKHDAELTDLHAETCGLKQSAGGALSKRLYRR	not soluble
MKYQAAIFDMDGLLLDTERVCMRIFQEACEVQNLPFYEDVYLSIIGRNAAGIETIFRKAYGENLDRLHLEWRTRYNAVVKHQAIP	not soluble
MKYSLCTISFRHQLISFTDIVQFAYENGFEGIELWGTHAQNLYMQEYETTERELNCLKDKTLEITMISDYLDISLSADFEKTIEKCEQLAILANWFKTNKIRTFAGQKGSADFSQQERQEYVNRIRMICELFAQHNMYVLLETHPNTLTDTLPSTLELLGEVDHPNLKINLDFLHIWESGADPVDSFQQLRPWIQHYHFKNISSADYLHVFEPNNVYAAAGNRTGMVPLFEGIVNYDEIIQEVRDTDHFASLEWFGHNAKDILKAEMKVLTNRNLEVVTSENLYFQ	soluble
